To fix the notation:
B1: VRT-26 (Fc fusion)
chain: VTSVWTKGVTPPTNFTYGEDVLHAPYVANQGWYDITKTFNGKDNLLCGAATAGNMLHWWFDQNKEQIENYLKKHPEKQKINFNGEQLFDVKEAIDTKDSQLDSKLFEYFKEKAFPYLSTKHLGVFPDHVIDMFINGYRLSLTNHGPTPVKRGSKDKRGGIFDAVFTRGVQSKLLTNRHDFKEKTLKEISDLIKQELTEGKALGISHTYANVRINHVINLWGADFDAEGNLEAIYVTDSDTNASIGMKKYFVGVNSNGKVAISAKEIEEDNIGAQVLGLFTLSTGQDIWNQTNDKTHTCPPCPAPEAAGAPSVFLFPPKPKDTLMISRTPEVTCVVVDVSHEDPEVKFNWYVDGVEVHNAKTKPREEQQNSTYRVVSVLTVLHQDWLNGKEYKCKVSNKALKAPIEKTISKAKGQPREPQVYTLPPSRDELTKNQVSLTCLVKGFYPSDIAVEWESNGQPENNYKTTPPVLDSDGSFFLYSKLTVDKSRWQQGNVFSCSVMHEALHNHYTQKSLSLSPG
B2: VRT-27 (Fc fusion)
chain: VTSVWTKGVTPPADFTQGEDVFHAPYVANQGWYDITKTFNGKDNLLCGAATAGNMLHWWFDQNKEYIEAYLKKHPEKQKIIFGDQELLDVRKAINTKGSQKNSELFNYFRDKAFPNLSARRLGVFPDLVLDMFINGYYLNVTKTQTTDVNRTYQEKDKRGGIFDAVFTRGVQSKLLTSRHDFKEKGLKEISDLIKQELTEGKALGLSHTYANVRINHVINLWGADFDSDGNLKAIYVTDSDTNASIGMKKYFVGVNSAGKVAISAKEIKEDNIGAQVLGLFTLSTGQDIWNQTNDKTHTCPPCPAPEAAGAPSVFLFPPKPKDTLMISRTPEVTCVVVDVSHEDPEVKFNWYVDGVEVHNAKTKPREEQQNSTYRVVSVLTVLHQDWLNGKEYKCKVSNKALKAPIEKTISKAKGQPREPQVYTLPPSRDELTKNQVSLTCLVKGFYPSDIAVEWESNGQPENNYKTTPPVLDSDGSFFLYSKLTVDKSRWQQGNVFSCSVMHEALHNHYTQKSLSLSPG
B3: VRT-21 (Fc fusion)
chain: VTSVWTKGVTPPAKFTQGEDVFHAPYVANQGWYDITKTFNRKDNLLCGAATAGNMLHWWFDQNKEKIEAYLKKHPDKQKIIFGDQELLDVRKVINTKGDQTNSELFNYFRDKAFPGLSARRIGVFPDLVLDMFINGYYLNVYKTQTTDVNRTYQEKDRRGGIFDAVFTRGVQSKLLTSRHDFKEKNLKEISDLIKKELTEGKALGLSHTYANVRINHVINLWGADFDSNGNLKAIYVTDSDTRASIGMKKYFVGVNAAGKVAISAKEIKEDNIGAQVLGLFTLSTGQDSWNQTNDKTHTCPPCPAPEAAGAPSVFLFPPKPKDTLMISRTPEVTCVVVDVSHEDPEVKFNWYVDGVEVHNAKTKPREEQQNSTYRVVSVLTVLHQDWLNGKEYKCKVSNKALKAPIEKTISKAKGQPREPQVYTLPPSRDELTKNQVSLTCLVKGFYPSDIAVEWESNGQPENNYKTTPPVLDSDGSFFLYSKLTVDKSRWQQGNVFSCSVMHEALHNHYTQKSLSLSPG
B4: VRT-23 (Fc fusion)
chain: SQTEDSESLQRLRDIEDFQAEKKMQNVVYTKWLDGVDVKDHDFRKIVDGNIAYYATPLLNGRGFYDINKDFNRDNDKCAAAVAANMFHYWLDINRDNVDRFLRQNPEKHGIIELPDEQLKLSDFLNTYESDHGYRDKSKLFDFISNNFNKPVWTDKLLDNYINGYAYNYKYGRTIEDSTKNTSKINFFKEVFNEKILTNIHSIRNQNEFSVLLSEALYTGKAIGLSYGPAGLRHSLGHIISVWGADLDADGNVVAIYVTDSDDKKLTIGDERVGLKRYKISTDDENRLRLTAYEETHNTGGQIRGLWTLDTGKYAWADYFDKTEQTGTDQAEQDKTHTCPPCPAPEAAGAPSVFLFPPKPKDTLMISRTPEVTCVVVDVSHEDPEVKFNWYVDGVEVHNAKTKPREEQQNSTYRVVSVLTVLHQDWLNGKEYKCKVSNKALKAPIEKTISKAKGQPREPQVYTLPPSRDELTKNQVSLTCLVKGFYPSDIAVEWESNGQPENNYKTTPPVLDSDGSFFLYSKLTVDKSRWQQGNVFSCSVMHEALHNHYTQKSLSLSPG
B5: VRT-28 (Fc fusion)
chain: ITSVWTKGVTPPAKFTQGEDVFHAPYVANQGWYDITKTFNGKDNLLCGAATAGNMLHWWFDQNKEEIEAYLKKHPEKQKIIFGDQELLDVRKVINTKDSQTNSALFNYFKDKAFPNLSARRLGVFPDLVLDMFINGYYLNVYKTQTTDVNRTYQTKDRRGGIFDAVFTRGVQSKLLTERHDFKEKTLKEISDLIKQELTEGKALGLSHTYANVRINHVINLWGADFDSNGNLEAIYVTDSDTNASIGMKKYFVGVNSAGKVAISAKEIKEDNIGAQVLGLFTLSTGQDIWNQTNDKTHTCPPCPAPEAAGAPSVFLFPPKPKDTLMISRTPEVTCVVVDVSHEDPEVKFNWYVDGVEVHNAKTKPREEQQNSTYRVVSVLTVLHQDWLNGKEYKCKVSNKALKAPIEKTISKAKGQPREPQVYTLPPSRDELTKNQVSLTCLVKGFYPSDIAVEWESNGQPENNYKTTPPVLDSDGSFFLYSKLTVDKSRWQQGNVFSCSVMHEALHNHYTQKSLSLSPG
B6: VRT-22 (Fc fusion)
chain: QITSVWTKGVTPLTPEQFRYYNEDVIHAPYLAHQGWYDITKAFDGKDNLLCGAATAGNMLHWWFDQNKTEIEAYLSKHPEKQKIIFKNQELFDLKAAIDTKDSQTNSQLFNYFRDKAFPGLSARQLGVFPDLVLDMFINGYYLNVFKTQSTDVNRPYQDKDKRGGIFDAVFTRGVQTTLLTARHDLKNKGLNDISTIIKQELTEGRALALSHTYANVRISHVINLWGADFNAEGNLEAIYVTDSDTRASIGMKKYFVGINAHGHVAISAKKIEGENIGAQVLGLFTLSSGKDIWQKLSDKTHTCPPCPAPEAAGAPSVFLFPPKPKDTLMISRTPEVTCVVVDVSHEDPEVKFNWYVDGVEVHNAKTKPREEQQNSTYRVVSVLTVLHQDWLNGKEYKCKVSNKALKAPIEKTISKAKGQPREPQVYTLPPSRDELTKNQVSLTCLVKGFYPSDIAVEWESNGQPENNYKTTPPVLDSDGSFFLYSKLTVDKSRWQQGNVFSCSVMHEALHNHYTQKSLSLSPG
B7: VRT-24 (Fc fusion)
chain: VTSVWTKGVTPPANFTQGEDVFHAPYKANQGWYDITKTFNGKDNLLCGAATAGNMLHWWFDQNKDQIEAYLKEHPEKQKINFNGEQLFDVKEAIDTKDDQTNSKLFEYFKEKAFPYLSTKHLGVFPDHVLDMFINGYRLSLTNHGPTPVKEGSKDKRGGIFDAVFTRGVQSKLLTSRHDFKEKTLKEISDLIKQELTEGKALALSHTYANVRINHVINLWGADFDSNGNLEAIYVTDSDTNASIGMKKYFVGVNSAGKVAISAKEIEDDNIGAQVLGLFTLSTGQDIWNQTNDKTHTCPPCPAPEAAGAPSVFLFPPKPKDTLMISRTPEVTCVVVDVSHEDPEVKFNWYVDGVEVHNAKTKPREEQQNSTYRVVSVLTVLHQDWLNGKEYKCKVSNKALKAPIEKTISKAKGQPREPQVYTLPPSRDELTKNQVSLTCLVKGFYPSDIAVEWESNGQPENNYKTTPPVLDSDGSFFLYSKLTVDKSRWQQGNVFSCSVMHEALHNHYTQKSLSLSPG
B8: VRT-25 (Fc fusion)
chain: VTSVWTKGVTPPANFTQGEDVFHAPYVANQGWYDITKTFNGKDNLLCGAATAGNMLHWWFDQNKDQIERYLKEHPEKQKINFNGEQLFDVKEAIDTKDSQTDSKLFEYFKEKAFPYLSTKHLGVFPDHVLDMFINGYRLSLTNHGPTPVKEGSKDKRGGIFDAVFTRGVQSKLLTSRHDFKEKTLKEISDLIKQELTEGKALGLSHTYANVRINHVINLWGADFDSEGNLKAIYVTDSDTNASIGMKKYFVGVNSAGKVAISAKEIKEDNIGAQVLGLFTLSTGQDIWNQTNDKTHTCPPCPAPEAAGAPSVFLFPPKPKDTLMISRTPEVTCVVVDVSHEDPEVKFNWYVDGVEVHNAKTKPREEQQNSTYRVVSVLTVLHQDWLNGKEYKCKVSNKALKAPIEKTISKAKGQPREPQVYTLPPSRDELTKNQVSLTCLVKGFYPSDIAVEWESNGQPENNYKTTPPVLDSDGSFFLYSKLTVDKSRWQQGNVFSCSVMHEALHNHYTQKSLSLSPG
B9: VRT-30 (Fc fusion)
chain: QITSVWTKGVTPPTPEQFRYNNEDVIHAPYLANQGWYDITKTFNGKDNLLCGAATAGNMLHWWFDQNKTEIEAYLSKHPEKQKIIFNNQELFDLKAAIDTKDSQTNSQLFNYFRDKAFPGLSARQLGVFPDLVLDMFINGYYLNVFKTQSTDVNRPYQDKDKRGGIFDAVFTRGVQTTLLTARHDLKNKTLNDISTLIKQELTEGKALALSHTYANVRISHVINLWGADFNAEGNLEAIYVTDSDANASIGMKKYFVGVNAHGKVAISAKKIEGENIGAQVLGLFTLSSGKDIWQKLSDKTHTCPPCPAPEAAGAPSVFLFPPKPKDTLMISRTPEVTCVVVDVSHEDPEVKFNWYVDGVEVHNAKTKPREEQQNSTYRVVSVLTVLHQDWLNGKEYKCKVSNKALKAPIEKTISKAKGQPREPQVYTLPPSRDELTKNQVSLTCLVKGFYPSDIAVEWESNGQPENNYKTTPPVLDSDGSFFLYSKLTVDKSRWQQGNVFSCSVMHEALHNHYTQKSLSLSPG

The target of the test is pooled human IgG (human). In words: cell-based or functional assay.
The molecule B1 had an Enzyme Activity Endpoint Assay: Fab′2 of 0 ng/µL, an Enzyme Activity Endpoint Assay: Fc of 213 ng/µL, an Enzyme Activity Endpoint Assay: IgG of 303 ng/µL and an Enzyme Activity Endpoint Assay: scIgG of 342 ng/µL.

Molecule B2 gave an Enzyme Activity Endpoint Assay: Fab′2 of 0 ng/µL, an Enzyme Activity Endpoint Assay: Fc of 92 ng/µL, an Enzyme Activity Endpoint Assay: IgG of 1150 ng/µL and an Enzyme Activity Endpoint Assay: scIgG of 33 ng/µL.

For the molecule B3, the Enzyme Activity Endpoint Assay: Fab′2 amounted to 0 ng/µL, the Enzyme Activity Endpoint Assay: Fc is 6 ng/µL, the Enzyme Activity Endpoint Assay: IgG came out at 949 ng/µL and the Enzyme Activity Endpoint Assay: scIgG was determined as 11 ng/µL.

Molecule B4 had an Enzyme Activity Endpoint Assay: Fab′2 of 0 ng/µL, an Enzyme Activity Endpoint Assay: Fc of 29 ng/µL, an Enzyme Activity Endpoint Assay: IgG of 1010 ng/µL and an Enzyme Activity Endpoint Assay: scIgG of 20 ng/µL.

B5 showed an Enzyme Activity Endpoint Assay: Fab′2 of 0 ng/µL, an Enzyme Activity Endpoint Assay: Fc of 3 ng/µL, an Enzyme Activity Endpoint Assay: IgG of 987 ng/µL and an Enzyme Activity Endpoint Assay: scIgG of 22 ng/µL.

B6 yielded an Enzyme Activity Endpoint Assay: Fab′2 of 0 ng/µL, an Enzyme Activity Endpoint Assay: Fc of 31 ng/µL, an Enzyme Activity Endpoint Assay: IgG of 1010 ng/µL and an Enzyme Activity Endpoint Assay: scIgG of 21 ng/µL.

Molecule B7 had an Enzyme Activity Endpoint Assay: Fab′2 of 0 ng/µL, an Enzyme Activity Endpoint Assay: Fc of 187 ng/µL, an Enzyme Activity Endpoint Assay: IgG of 392 ng/µL and an Enzyme Activity Endpoint Assay: scIgG of 249 ng/µL.

The molecule B8 displayed an Enzyme Activity Endpoint Assay: Fab′2 of 12 ng/µL, an Enzyme Activity Endpoint Assay: Fc of 204 ng/µL, an Enzyme Activity Endpoint Assay: IgG of 183 ng/µL and an Enzyme Activity Endpoint Assay: scIgG of 284 ng/µL.

Molecule B9 registered an Enzyme Activity Endpoint Assay: Fab′2 of 0 ng/µL, an Enzyme Activity Endpoint Assay: Fc of 46 ng/µL, an Enzyme Activity Endpoint Assay: IgG of 986 ng/µL and an Enzyme Activity Endpoint Assay: scIgG of 22 ng/µL.
